Among the data in paper PMC9732523 are Kd values, retold here.

One may read the Kd as a measure of binding affinity in units of concentration.

In the data set the target is hnRNP K (UniProt P61978 1-463). Put plainly: fluorescence anisotropy.

B1: mRunx1 int3-4 (ssRNA)
RNA: UCCUCCUCCCUUCCCCUCCCGGUCCCUA
In turn, B1 displayed a Kd of 14.5 nM.

B2: hRUNX1 int3-4 (ssRNA)
RNA: UCUCUUCCCUCCCUCCUUCCCUCCCCCCAU
In the case of B2, the Kd came out at 13.5 nM.
